In paper PMC7340788, “Structure of the yeast Swi/Snf complex in a nucleosome free state” (Nature Communications, 2020):

T1: Swi3 (S. cerevisiae, UniProt P32591 1-825)
T1 construct: Swi3, subunit of the S. cerevisiae Swi/Snf complex; endogenous protein; two copies (chains A and B) in the model; also called Swi3A; Swi3B; source: endogenous, S. cerevisiae; purified as part of the Swi/Snf complex through Snf6-3Flag (ANTI-FLAG M2 resin, Superose 6)
T1 sequence (looked up): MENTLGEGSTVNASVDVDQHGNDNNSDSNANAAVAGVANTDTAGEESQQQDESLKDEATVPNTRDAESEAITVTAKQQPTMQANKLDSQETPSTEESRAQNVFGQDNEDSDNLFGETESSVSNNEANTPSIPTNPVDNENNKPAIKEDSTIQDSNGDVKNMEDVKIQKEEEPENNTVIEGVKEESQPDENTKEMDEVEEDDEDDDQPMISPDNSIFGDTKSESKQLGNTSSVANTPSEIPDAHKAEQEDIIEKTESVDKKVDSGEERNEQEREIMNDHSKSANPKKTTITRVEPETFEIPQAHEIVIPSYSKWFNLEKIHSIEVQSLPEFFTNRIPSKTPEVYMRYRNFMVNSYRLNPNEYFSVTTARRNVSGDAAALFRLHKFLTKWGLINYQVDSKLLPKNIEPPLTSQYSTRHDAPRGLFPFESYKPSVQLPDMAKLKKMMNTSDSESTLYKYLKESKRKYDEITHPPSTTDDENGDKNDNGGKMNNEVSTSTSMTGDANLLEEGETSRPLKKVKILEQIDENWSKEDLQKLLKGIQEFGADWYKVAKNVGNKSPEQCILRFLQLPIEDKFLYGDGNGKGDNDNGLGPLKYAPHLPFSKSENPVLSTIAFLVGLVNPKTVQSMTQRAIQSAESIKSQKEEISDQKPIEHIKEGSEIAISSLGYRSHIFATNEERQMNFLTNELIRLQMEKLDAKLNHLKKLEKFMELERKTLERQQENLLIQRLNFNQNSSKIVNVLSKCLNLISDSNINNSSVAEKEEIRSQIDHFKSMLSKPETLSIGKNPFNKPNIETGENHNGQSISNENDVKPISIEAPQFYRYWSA

B1: Snf6 with a C-terminal 3-Flag tag (natural protein, S. cerevisiae, UniProt P18888 1-332, looked up)
chain: MGVIKKKRSHHGKASRQQYYSGVQVGGVGSMGAINNNIPSLTSFAEENNYQYGYSGSSAGMNGRSLTYAQQQLNKQRQDFERVRLRPEQLSNIIHDESDTISFRSNLLKNFISSNDAFNMLSLTTVPCDRIEKSRLFSEKTIRYLMQKQHEMKTQAAELQEKPLTPLKYTKLIAAAEDGSRSTKDMIDAVFEQDSHLRYQPDGVVVHRDDPALVGKLRGDLREAPADYWTHAYRDVLAQYHEAKERIRQKEVTAGEAQDEASLQQQQQQDLQQQQQVVTTVASQSPHATATEKEPVPAVVDDPLENMFGDYSNEPFNTNFDDEFGDLDAVFF
notes: Snf6, subunit of the S. cerevisiae Swi/Snf complex; expressed from its own locus; Bait of the purification; For cryo-EM the complex was cross-linked with 1 mM BS3; source: endogenous locus tagged by homologous recombination, S. cerevisiae; purified (ANTI-FLAG M2 resin, FLAG peptide elution, Superose 6); not shown: 3-Flag, C-terminal, kept
B2: Snf5 (natural protein, S. cerevisiae, UniProt P18480 1-905, looked up)
chain: MNNQPQGTNSVPNSIGNIFSNIGTPSFNMAQIPQQLYQSLTPQQLQMIQQRHQQLLRSRLQQQQQQQQQTSPPPQTHQSPPPPPQQSQPIANQSATSTPPPPPAPHNLHPQIGQVPLAPAPINLPPQIAQLPLATQQQVLNKLRQQAIAKNNPQVVNAITVAQQQVQRQIEQQKGQQTAQTQLEQQRQLLVQQQQQQQLRNQIQRQQQQQFRHHVQIQQQQQKQQQQQQQHQQQQQQQQQQQQQQQQQQQQQQQQQQQQQQQQQQQQQGQIPQSQQVPQVRSMSGQPPTNVQPTIGQLPQLPKLNLPKYQTIQYDPPETKLPYPTYWSDKKADTDTLLYEQIIQRDKINKYSLIRETNGYDPFSIYGFSNKEYISRLWHTLKYYQDLKNTRMKSITSTSQKIPSASIWGNGYSGYGNGITNTTTRVIPQVEVGNRKHYLEDKLKVYKQAMNETSEQLVPIRLEFDQDRDRFFLRDTLLWNKNDKLIKIEDFVDDMLRDYRFEDATREQHIDTICQSIQEQIQEFQGNPYIELNQDRLGGDDLRIRIKLDIVVGQNQLIDQFEWDISNSDNCPEEFAESMCQELELPGEFVTAIAHSIREQVHMYHKSLALLGYNFDGSAIEDDDIRSRMLPTITLDDVYRPAAESKIFTPNLLQISAAELERLDKDKDRDTRRKRRQGRSNRRGMLALSGTSASNTSMNGVHNTVAAGNASSLPPGEILLPDIADIPRTFRTPVPSTLMPGGVDVGPSVESYELRNTTTYKSRPDRPKPVSPPCYIIDHIPGHSLLLSIKLPGKVNTKEEFAAAPNDTSSGTNAMLPSPESLKTKLNSNIRAGVTIPSIPNPIANHTVTNSPNPTLQPVIPGGAASKSVPTPSLPIAPPVAPHDSEATLLTNSNNGSSNNNTQNT
notes: Snf5, subunit of the S. cerevisiae Swi/Snf complex; endogenous protein; For cryo-EM the complex was cross-linked with 1 mM BS3; source: endogenous, S. cerevisiae; purified as part of the Swi/Snf complex through Snf6-3Flag (ANTI-FLAG M2 resin, Superose 6)
B3: Snf12 (natural protein, S. cerevisiae, UniProt P53628 1-566, looked up)
chain: MSKVMKPSNGKGSRKSSKAATPDTKNFFHAKKKDPVNQDKANNASQITPTVPHSHPSDMVIPDHLAELIPELYSFQQLVDSEKRLDHFIHLRNLHMKRMVAQWERSKLSQEFLYPHLNFPNVKFLRIFISNVSENQPWQMDTNNEADLMALENATWTMRIEGRLLDNVQANDPAREKFSSFIESIVVDFKNKENDNVPSTKFNAAPEENATEGPSDKKLNLNLPLQFSLPNGDNSTTTNTDQNNATMGEETAKKDMSSTTPKLESVKWQYDPNNPVDFDGLDIKRVGSENVECTISILRKSSPEEPFMSYSPQLTAIIGLKSGTSHDAIFSIYKYIHLNELLTNDESAFENLMGNRNNHNSNTSTSKMLDAASSQVSIVKLDTQLITLLPSSLKESSPDTMKLTDLLSLINSTHLLPLQPIEIDYTVRVDKASTYGELVLDIEVPDVNALKFNNTQRESQIGAAELNENARELEQIKPKIALQDKEITSVLSNLHESNKRYRFFKKISEDPVKALNECIASTSNALKVLSGDEGYNEDMVRRANFYKENEAMLRENIEVILSNGRM
notes: Snf12, subunit of the S. cerevisiae Swi/Snf complex; endogenous protein; Part of the SWIB domain was homology modelled; For cryo-EM the complex was cross-linked with 1 mM BS3; source: endogenous, S. cerevisiae; purified as part of the Swi/Snf complex through Snf6-3Flag (ANTI-FLAG M2 resin, Superose 6)
B4: Swi1 (natural protein, S. cerevisiae, UniProt P09547 1-1314, looked up)
chain: MDFFNLNNNNNNNNTTTTTTTTNNNNTNNNNTNNNNNPANNTNNNNSTGHSSNTNNNTNNNNTNTGASGVDDFQNFFDPKPFDQNLDSNNNNSNSNNNDNNNSNTVASSTNFTSPTAVVNNAAPANVTGGKAANFIQNQSPQFNSPYDSNNSNTNLNSLSPQAILAKNSIIDSSNLPLQAQQQLYGGNNNNNSTGIANDNVITPHFITNVQSISQNSSSSTPNTNSNSTPNANQQFLPFNNSASNNGNLTSNQLISNYAASNSMDRSSSASNEFVPNTSDNNNNSNNHNMRNNSNNKTSNNNNVTAVPAATPANTNNSTSNANTVFSERAAMFAALQQKQQQRFQALQQQQQQQQNQQQQNQQPQQQQQQQQNPKFLQSQRQQQQRSILQSLNPALQEKISTELNNKQYELFMKSLIENCKKRNMPLQSIPEIGNRKINLFYLYMLVQKFGGADQVTRTQQWSMVAQRLQISDYQQLESIYFRILLPYERHMISQEGIKETQAKRIFLQQFLQELLKKVQQQQQAAALANANNNINSASSAPTPAAPGASVPATAAPGTEAGIVPVSANTPKSLNSNININVNNNNIGQQQVKKPRKQRVKKKTKKELELERKEREDFQKRQQKLLEDQQRQQKLLLETKLRQQYEIELKKLPKVYKRSIVRNYKPLINRLKHYNGYDINYISKIGEKIDSNKPIFLFAPELGAINLHALSMSLQSKNLGEINTALNTLLVTSADSNLKISLVKYPELLDSLAILGMNLLSNLSQNVVPYHRNTSDYYYEDAGSNQYYVTQHDKMVDKIFEKVNNNATLTPNDSNDEKVTILVDSLTGNQLPTPTPTEMEPDLDTECFISMQSTSPAVKQWDLLPEPIRFLPNQFPLKIHRTPYLTSLKKIKDEIDDPFTKINTRGAEDPKVLINDQLSTISMILRNISFSDNNSRIMSRNFYLKRFISDLLWLVLIHPENFTCNRKILNFKKDLVIVLSNISHLLEIASSIDCLLILILVISFGQPKLNPMASSSSFGSESLTFNEFQLQWGKYQTFGVDILAKLFSLEKPNLNYFKSILLNKNTGNNLYDRNSNNNHKDKKLLRRLLNLYNDNNKNNNNRHNLLNDVVSFLFSAIPLQQVLSQSADPSLLIDQFSPVISQSLTSILVIVQKILPLSNEVFEISENNSDSNSNNNGNKDSSFNFNKNLPFVWLSSEENIGSGLLKLSEIILNINNSTSKNTLLQQQNYSKVLLPSINISCVQLIKCLVEKSICFENCLNNDPEILKKIASIPNLFPTDLEIFQLFTNPSVDIQIINQYQLLYNLKNDILTNLE
notes: Swi1, subunit of the S. cerevisiae Swi/Snf complex; endogenous protein; Only part of the chain is modelled (C-terminus with seven ARM repeats, α1, β1); For cryo-EM the complex was cross-linked with 1 mM BS3; source: endogenous, S. cerevisiae; purified as part of the Swi/Snf complex through Snf6-3Flag (ANTI-FLAG M2 resin, Superose 6)

Experiments:
Assay in all cases: cryo-EM structure; endogenous Swi/Snf complex purified as a whole through Snf6-3Flag, nucleosome-free, cross-linked with 1 mM BS3, 20 mM HEPES pH 7.4, 350 mM NaCl; 4.1 Å average, 2.9 Å for the base module
Conditions in all cases: both partners purified
[1] = target: T2, Snf2 (S. cerevisiae, UniProt P22082 1-1703)
T2 construct: Snf2, ATPase-containing subunit of the S. cerevisiae Swi/Snf complex; endogenous protein; Only the preHSA domain and the HSA helix are seen in the map; the ATPase domain is absent from the structure; For cryo-EM the complex was cross-linked with 1 mM BS3; source: endogenous, S. cerevisiae; purified as part of the Swi/Snf complex through Snf6-3Flag (ANTI-FLAG M2 resin, Superose 6)

[2] = target: B4
[3] = target: T1, Swi3

T2 sequence (P22082 whole entry, the tested form may be a part): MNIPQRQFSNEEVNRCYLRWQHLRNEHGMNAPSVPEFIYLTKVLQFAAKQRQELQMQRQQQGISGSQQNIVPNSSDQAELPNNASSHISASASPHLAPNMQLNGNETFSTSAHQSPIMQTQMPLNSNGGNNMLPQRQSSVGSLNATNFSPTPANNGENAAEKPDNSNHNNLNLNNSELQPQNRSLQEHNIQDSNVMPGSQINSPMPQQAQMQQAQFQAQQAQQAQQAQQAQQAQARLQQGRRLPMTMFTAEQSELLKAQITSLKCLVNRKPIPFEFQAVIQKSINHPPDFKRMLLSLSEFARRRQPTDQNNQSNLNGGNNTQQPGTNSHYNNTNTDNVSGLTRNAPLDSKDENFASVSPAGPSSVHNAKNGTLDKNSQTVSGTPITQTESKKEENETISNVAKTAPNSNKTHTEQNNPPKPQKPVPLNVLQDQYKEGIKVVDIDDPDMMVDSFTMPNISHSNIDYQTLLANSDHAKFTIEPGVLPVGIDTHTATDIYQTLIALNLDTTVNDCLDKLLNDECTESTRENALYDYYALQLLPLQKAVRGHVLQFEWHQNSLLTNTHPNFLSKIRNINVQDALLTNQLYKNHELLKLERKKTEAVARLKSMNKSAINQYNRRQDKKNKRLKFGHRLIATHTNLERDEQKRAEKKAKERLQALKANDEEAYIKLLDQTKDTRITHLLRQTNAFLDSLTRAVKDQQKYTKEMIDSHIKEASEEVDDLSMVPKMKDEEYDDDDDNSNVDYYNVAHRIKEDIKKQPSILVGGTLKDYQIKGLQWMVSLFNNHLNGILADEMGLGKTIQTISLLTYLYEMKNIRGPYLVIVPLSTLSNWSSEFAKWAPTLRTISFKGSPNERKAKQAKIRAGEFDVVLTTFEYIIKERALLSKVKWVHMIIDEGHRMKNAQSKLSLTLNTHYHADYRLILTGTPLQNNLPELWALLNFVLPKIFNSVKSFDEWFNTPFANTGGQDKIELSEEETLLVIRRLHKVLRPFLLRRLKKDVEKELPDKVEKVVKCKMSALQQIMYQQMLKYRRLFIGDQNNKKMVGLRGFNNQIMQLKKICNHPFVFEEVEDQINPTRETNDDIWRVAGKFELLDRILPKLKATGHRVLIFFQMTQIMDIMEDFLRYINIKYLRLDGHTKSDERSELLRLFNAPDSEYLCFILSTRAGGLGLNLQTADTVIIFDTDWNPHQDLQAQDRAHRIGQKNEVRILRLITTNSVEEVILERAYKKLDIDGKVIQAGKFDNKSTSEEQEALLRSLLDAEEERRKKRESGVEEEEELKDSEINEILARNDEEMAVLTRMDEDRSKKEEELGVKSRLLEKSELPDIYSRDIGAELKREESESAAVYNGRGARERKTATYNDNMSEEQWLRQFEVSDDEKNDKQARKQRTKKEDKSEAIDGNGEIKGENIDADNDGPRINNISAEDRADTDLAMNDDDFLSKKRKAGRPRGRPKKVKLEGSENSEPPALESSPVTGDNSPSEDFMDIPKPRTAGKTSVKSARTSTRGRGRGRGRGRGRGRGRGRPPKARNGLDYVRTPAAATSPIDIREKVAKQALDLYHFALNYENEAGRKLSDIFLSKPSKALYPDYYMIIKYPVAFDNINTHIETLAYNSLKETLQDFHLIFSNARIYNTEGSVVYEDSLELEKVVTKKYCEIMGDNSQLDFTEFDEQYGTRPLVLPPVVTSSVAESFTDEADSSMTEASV

binding result [1] | binding result [2] | binding result [3] | Binder
binds | binds | – | B1
binds | binds | – | B2
binds | binds | binds | B3
binds | – | – | B4
